Results on 16 sequences are retold here after the nanobody polyreactivity screen of Harvey et al. (2022).

This series is described as follows: yeast display, Sf9 membrane polyspecificity reagent, FACS + sequencing; frameworks hold sequencing errors. In a few lines: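 After 36–48 hours of galactose induction, yeast (Saccharomyces cerevisiae BJ5465) displaying a synthetic nanobody library were stained at 4 °C for 1 hour with 10% biotinylated, detergent-solubilized Sf9 membrane reagent. Streptavidin microbeads enriched the stained cells before FACS sorting into low and high (top ~1%) gates on anti-HA and streptavidin fluorescence. Each clone's polyreactivity label reflects its gate of origin.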
As to “QVHLVESGGGLVQAGGSLRLSCAASGSTFPYYDMGWYRQAPGKERELVAAITYNGGNTYYADSVKGRFTISRDNAKNTVYLQMNSLKPEDTAVYYCAADGTLARLYYWATGDEDGYWGQGTQVTVSS”, the “polyreactivity (PSR sort gate)” value is on record as “low polyreactivity”.
For “QVHLVESGGGLVQAGGSLRLSCAASGSTFQSNAMGWYRQAPGKERELVATITQSGATTYYADSVKGRFTISRDNAKNTVYLQMNSLKPEDTAVYYCNVDTYQKRWFWLDLDGGYWGQGTQVTVSS”, the “polyreactivity (PSR sort gate)” value is “low polyreactivity”.
As to “QVHLVESGGGLVQAGGSLRLSCAASGSTFQTNAMGWSRQAPGKERELVAAISRTGGRSNYADSVKGRFTISRDNAKNTVYLQMHSLKPEDTAVYDCAAGVPKTGQAGYDYWGQGTQVTVSS”, the “polyreactivity (PSR sort gate)” value is listed as “high polyreactivity”.
As to “QVHLVESGGGLVQAGGSLRLSCAASGSTFRYYAMGWYRQAPGKERELVAAIRDSGGSTYYADSVKGRFTISRDNAKNTVYLQMNSLKPEDTAVYYCARRAYRWYSAYDSWGQGTQVTVSS”, the “polyreactivity (PSR sort gate)” value is recorded as “high polyreactivity”.
For “QVHLVESGGGLVQAGGSLRLSCAASGSTFSGYTMGWYRQAPGKEREFVAAISSRGGSTYYADSVKGRFTISRDNAKNSVYLQMNSVNPEDTAVYYCAAKVWARVDGRQFRLEYWGQGTQVTVSS” the value was “high polyreactivity”.
For “QVHLVESGGGLVQAGGSLRLSCAASGSTFVGNAMGWNRKAPGKERELVATISNSGGRTYYADSVKGPFTISRDNAKNTVYLEMNSLKPEDTAVYYCAADHPAFGPVYSFDYWGQGTQVTVSS” the value was “low polyreactivity”; for “QVHLVESGGGLVQAGGSLRLSCAASGSTFVTYTMGWYRQAPGKERELVATITASGGSTYYADSVKGRFTISRDNEKNTVYLQMNSLKPEYTAVYYCAKRRSPVERYDFWGQGTQVTVSS”, “low polyreactivity”; for “QVHLVESGGGLVQAGGSLRLSCAASGSTFYLYAMGWYRQATGKERELDASISRSGITTYSDSVKGRFTITRDNAKNNVYLQLNSRNPEDTADYYCAVRYYSASYWYGYDYWGLGTQVTVSS”, “high polyreactivity”.
Next, “QVHLVESGGGLVQAGGSLRLSCAASGSTFYNNAMGLYRQAPGKERELVASISLSAGSTYYADSVKGRFTISRDNAKNTVYLQMNSMKPEDTAVYYCAAESVAILVLVYPKGYGYWGQGTQVTVSS”: “low polyreactivity”.
Consider “QVHLVESGGGLVQAGGSLRLSCAASGSTIVDYHMAWYRQAPGKERELVASISSSGGSTYYADSVKGRFTISRDNAKNTVYLQMNSLKPEDTAVYYCAADTWGFWYWGPLFSKYGYWGQGTQVTVSS”, for which the “polyreactivity (PSR sort gate)” value was “low polyreactivity”.
As for “QVHLVESGGGLVQAGGSLRLSCAASGSTLVIYAMGWYRQAPGKERELVAVITWSGGSTYYADSVKGRFTISRDNAKNTVYLQMNSLKPEDTAVYYCAKRPIVRQRSYYYWGQGTQVTVSS”, the “polyreactivity (PSR sort gate)” value is “low polyreactivity”.
“QVHLVESGGGLVQAGGSLRLSCAASGSTLVYNDMGWYRQAPGKEREFVAAIRSNDGSTYYADSVKGRFTISRDNAKNTVYLQMNSLKPEDTAVYYCAAERGYPKFGYWGQGTQVTVSS”: the “polyreactivity (PSR sort gate)” value is reported as “low polyreactivity”.
On to “QVHLVESGGGLVQAGGSLRLSCAASGSTLYRYAMGWYRQAPGKERELVATITRSGGSTYYADSVKGRFTISRDNAKNTVYLQINSLKPEDTAVYYCDAYRKVGGFSRGDYWGQGTKVTVSS”, for which the “polyreactivity (PSR sort gate)” value was “high polyreactivity”.
On to “QVHLVESGGGLVQAGGSLRLSCAASGSTSDNTMGWYRQAPGKERELVAAISQRGVSTYYADSVKGRFTISRDNAKNTVYLQMNSLKPEDTAVYYCNALLSAKFDYWGQGTQVTVSS”, for which the “polyreactivity (PSR sort gate)” value is on record as “low polyreactivity”.
In the case of “QVHLVESGGGLVQAGGSLRLSCAASGYIFGYYAMGWYRQAPGKERELVAAISQGGGDTYYADSVKGRFTISRDNAKYTVYLQMNSLKPEDTAVYYCAADYEQSYVLTGTFKYDYWGQGTQVTVSS”, the “polyreactivity (PSR sort gate)” value is given as “low polyreactivity”.
Turning to “QVHLVESGGGLVQAGGSLRLSCAASGYIFRWYAMGWYRQAPGKEREFVASISKRGGSTYYADSVKGRFTISRDNAKNTVYLQMNSLKPEDTAVYYCARTPSPLLYSYDYWGQGTQVTVSS”, the “polyreactivity (PSR sort gate)” value was “high polyreactivity”.
